Positions count from the first letter of the chain named. One block for each binder: values may come before it.
Key:
[1] = molecular target: T1, CAR-FITC (CD8 hinge), anti-FITC (FITC-E2 scFv) chimeric antigen receptor on T cells; experiment: flow cytometry on anti-FITC CAR T cells, Alexa Fluor 647 anti-human IgG or anti-human kappa secondary antibody, MFI against concentration
T1 construct: FITC-E2 scFv, CD8 hinge and transmembrane region, 41BB and CD3 zeta; also called Anti FITC CAR-EC with CD8 hinge; anti-FITC CAR
T1 sequence (chain, as listed by the source mutant limits assumed): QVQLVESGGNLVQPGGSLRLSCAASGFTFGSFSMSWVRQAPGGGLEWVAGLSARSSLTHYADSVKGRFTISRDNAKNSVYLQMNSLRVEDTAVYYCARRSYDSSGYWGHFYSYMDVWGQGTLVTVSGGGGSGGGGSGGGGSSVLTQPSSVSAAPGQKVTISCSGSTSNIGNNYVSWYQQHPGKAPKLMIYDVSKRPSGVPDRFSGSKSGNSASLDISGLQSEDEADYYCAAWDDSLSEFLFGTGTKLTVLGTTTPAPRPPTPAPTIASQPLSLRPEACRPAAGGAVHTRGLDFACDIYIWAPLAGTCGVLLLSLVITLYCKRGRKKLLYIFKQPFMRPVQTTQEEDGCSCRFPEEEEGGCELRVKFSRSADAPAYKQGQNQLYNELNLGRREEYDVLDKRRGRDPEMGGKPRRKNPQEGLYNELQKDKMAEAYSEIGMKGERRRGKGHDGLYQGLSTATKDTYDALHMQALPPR
Procedure: (§1) Cells were incubated with indicated switch antibodies at 4° C. for 30-60 min and washed twice with staining buffer (1% BSA in PBS). […] After several washes, samples were acquired on a BD LSR II or BD Accuri C6 and analyzed using FlowJo 7.6.2 software.
(§2) Briefly, cells were incubated with indicated switch antibodies at 4° C. for 30-60 min and washed twice with staining buffer (1% BSA in PBS). […] After several washes, samples were acquired on a BD LSR II or BD Accuri C6 and analyzed using FlowJo 7.6.2 software.

[2] = molecular target: T1, CAR-FITC (CD8 hinge), anti-FITC …; experiment: flow cytometry on anti-FITC CAR-T cells
Procedure: as §1, §2

CD33 on MOLM14 cells [3] = molecular target: T2, CD33 on MOLM14 cells (human, UniProt P20138 18-364); experiment: flow cytometry on MOLM-14 (CD33+) cells, MFI against Fab concentration, secondary antibody alone subtracted
T2 construct: whole, on cells; also called MOLM-14 cells (CD33+)
T2 sequence (P20138 18-364): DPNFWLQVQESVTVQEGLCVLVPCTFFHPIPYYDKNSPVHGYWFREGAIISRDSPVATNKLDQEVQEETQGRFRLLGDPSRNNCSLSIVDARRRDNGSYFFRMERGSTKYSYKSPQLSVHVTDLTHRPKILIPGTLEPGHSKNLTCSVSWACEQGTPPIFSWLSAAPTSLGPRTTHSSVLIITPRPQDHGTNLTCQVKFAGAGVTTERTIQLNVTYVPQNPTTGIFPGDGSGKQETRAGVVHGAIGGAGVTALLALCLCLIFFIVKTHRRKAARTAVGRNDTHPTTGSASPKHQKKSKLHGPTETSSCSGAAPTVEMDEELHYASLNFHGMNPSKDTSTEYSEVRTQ
Procedure: Binding capacity is measured through MFI. MFI of secondary antibody alone was subtracted to account for background and non-specific staining.

CD33 on MOLM14 cells [4] = molecular target: T2, CD33 on MOLM14 cells; experiment: cell-based or functional assay

B3: anti-CD19 (FMC63) Fab D-FITC (heavy chain A121) (Fab, V domains shown)
VH: EVKLQESGPGLVAPSQSLSVTCTVSGVSLPDYGVSWIRQPPRKGLEWLGVIWGSETTYYNSALKSRLTIIKDNSKSQVFLKMNSLQTDDTAIYYCAKHYYYGGSYAMDYWGQGTSVTVSS
VL: DIQMTQTTSSLSASLGDRVTISCRASQDISKYLNWYQQKPDGTVKLLIYHTSRLHSGVPSRFSGSGSGTDYSLTISNLEQEDIATYFCQQGNTLPYTFGGGTKLEIKR
modifications: position 121 of the whole heavy chain = pAzF conjugated with BCN-PEG4-FITC
notes: Monovalent, medial site; also called HA121
EC50 [1]: 0.0095 nM

B7: anti-CD19 (FMC63) Fab A-FITC (light chain G68) (Fab, V domains shown)
VH: B3 VH
VL: B3 VL
modifications: position 68 = pAzF conjugated with BCN-PEG4-FITC
notes: Monovalent, proximal site; also called LG68
EC50 [1]: 0.0094 nM

B10: anti-CD33 Fab (clone hM195) (Fab, V domains shown)
VH: QVQLVQSGAEVKKPGSSVKVSCKASGYTFTDYNMHWVRQAPGQGLEWIGYIYPYNGGTGYNQKFKSKATITADESTNTAYMELSSLRSEDTAVYYCARGRPAMDYWGQGTLVTVSS
VL: DIQMTQSPSSLSASVGDRVTITCRASESVDNYGISFMNWFQQKPGKAPKLLIYAASNQGSGVPSRFSGSGSGTDFTLNISSLQPDDFATYYCQQSKEVPWTFGQGTKVEIKR
EC50 (CD33 on MOLM14 cells [3]): 1800 nM

B11: anti-CD33 hP67.6 AB-FITC switch (light chain G72 and heavy chain P75) (Fab, V domains shown)
VH: EVQLVQSGAEVKKPGSSVKVSCKASGYTITDSNIHWVRQAPGQSLEWIGYIYPYNGGTDYNQKFKNRATLTVDNXTNTAYMELSSLRSEDTAFYYCVNGNPWLAYWGQGTLVTVSS
VL: DIQLTQSPSTLSASVGDRVTITCRASESLDNYGIRFLTWFQQKPGKAPKLLMYAASNQGSGVPSRFSGSGSXTEFTLTISSLQPDDFATYYCQQTKEVPWSFGQGTKVEVKR
modifications: position 75 = pAzF conjugated with a cyclooctyne-PEG-FITC linker; position 72 = pAzF conjugated with a cyclooctyne-PEG-FITC linker
EC50 of cytotoxicity of anti-FITC CAR-T cells against MOLM14 cells (CD33 on MOLM14 cells [4]): 0.0065 nM
efficacy in MOLM14 against the optimized anti-CD33 hM195 CD-FITC switch (CD33 on MOLM14 cells [4]): ~3 fold

B12: anti-CD33 Fab (clone hP67.6) (Fab, V domains shown)
VH: B11 VH with X75P
VL: B11 VL with X72G
EC50 (CD33 on MOLM14 cells [3]): 3.96 nM

Continued, values first:

EC50 [1]: 0.0029 nM
B1: random anti-CD19 (FMC63) Fab FITC conjugate (Fab, V domains shown)
VH: B3 VH
VL: B3 VL
modifications: FITC-PEG4 by NHS chemistry at the N-terminal amino group (~58% of the conjugates); FITC-PEG4 by NHS chemistry at lysines, largely K31 (~20%) and K141 (~68.4%); paragraph 560 prints positions 31 and 145
notes: Heterogeneous mixture, average FITC to antibody ratio of 2; also called random conjugate; Random (DAR 2)

EC50 [1]: 0.0092 nM
B2: anti-CD19 (FMC63) Fab F-FITC (heavy chain K136) (Fab, V domains shown)
VH: B3 VH
VL: B3 VL
modifications: position 136 of the whole heavy chain = pAzF conjugated with BCN-PEG4-FITC
notes: Monovalent, distal site; also called HK136

EC50 [1]: 0.0091 nM
B4: anti-CD19 (FMC63) Fab B-FITC (heavy chain S74) (Fab, V domains shown)
VH: B3 VH
VL: B3 VL
modifications: position 74 = pAzF conjugated with BCN-PEG4-FITC
notes: Monovalent, proximal site; also called HS74

EC50 [1]: 0.0064 nM
B5: anti-CD19 (FMC63) Fab C-FITC (light chain T109) (Fab, V domains shown)
VH: B3 VH
VL: B3 VL
modifications: position 109 of the whole light chain = pAzF conjugated with BCN-PEG4-FITC
notes: Monovalent, medial site; also called LT109

EC50 [1]: 0.0034 nM
B6: anti-CD19 (FMC63) Fab AB-FITC (light chain G68 and heavy chain S74) (Fab, V domains shown)
VH: B3 VH
VL: B3 VL
modifications: position 74 = pAzF conjugated with BCN-PEG4-FITC; position 68 = pAzF conjugated with BCN-PEG4-FITC
notes: Bivalent, proximal sites; also called anti-CD19 AB-FITC; LG68/HS74

EC50 [1]: 0.007 nM
B8: anti-CD19 (FMC63) Fab E-FITC (light chain S202) (Fab, V domains shown)
VH: B3 VH
VL: B3 VL
modifications: position 202 of the whole light chain = pAzF conjugated with BCN-PEG4-FITC
notes: Monovalent, distal site; also called LS202

EC50 [2]: ~3 nM
EC50 [1]: 0.0029 nM
B9: anti-CD19 (FMC63) Fab EF-FITC (light chain S202 and heavy chain K136) (Fab, V domains shown)
VH: B3 VH
VL: B3 VL
modifications: position 136 of the whole heavy chain = pAzF conjugated with BCN-PEG4-FITC; position 202 of the whole light chain = pAzF conjugated with BCN-PEG4-FITC
notes: Bivalent, distal sites; also called LS202/HK136
